Test: yeast display, Sf9 membrane polyspecificity reagent, FACS + sequencing; frameworks hold sequencing errors
Summary of the method: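 Polyreactivity labels are assigned by the sorting gate from which each nanobody was recovered. The gates were low and high (top ~1%), set on anti-HA fluorescence for expression and streptavidin fluorescence for reagent binding. Before sorting, galactose-induced (36–48 hours) yeast display cells were stained for 1 hour at 4 °C with 10% biotinylated, detergent-solubilized Sf9 membrane reagent.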
In the case of “QVQLVESGGGLVQAGGSLRLSCAASGRIFAVYAMGWYRQAPGKERELVAAIRWSGVRTYYADSVTGRFTISRDTAKKTVYLQMNSLKPEDTAVYYCAADYSGQYYSPVSYLYDYWGQGTQVTVSS”, the “polyreactivity (PSR sort gate)” value is reported as “high polyreactivity”. With “QVQLVESGGGLVQAGGSLRLSCAASGRIFAWYAMGWYRQAPGKERELVAAISSGGSTNYADSVKGRFTISRDNAKNTVYLQMNSLKPEDTAVYYCNRYPVRDTGGYWGQGTQVTVSS” the “polyreactivity (PSR sort gate)” value was “low polyreactivity”. In the case of “QVQLVESGGGLVQAGGSLRLSCAASGRIFAYNAMGWYRQAPGKERELVAAISWRVGCTYYADSVKGRFTISRDHAKNTVYLQMNSLKPEDTAVYYCNEAYYRHYQGDYWGQGTQVTVSS”, the “polyreactivity (PSR sort gate)” value is reported as “high polyreactivity”. In the case of “QVQLVESGGGLVQAGGSLRLSCAASGRIFAYNTMGWSRQAPGKERELVAVITSGGSTNYADSVKGRFTISRDNAKNTVYLQMNSLKPEDTAVYYCAKRPYCRSGGSRYDYWGQGTQVTVSS”, the “polyreactivity (PSR sort gate)” value is reported as “high polyreactivity”. For “QVQLVESGGGLVQAGGSLRLSCAASGRIFAYYAMGWYRQAPGKERELVAAINRSGVRTYYADSVKGRFTISRDNAMNTVYFQINSLKPEDTAVYYCAAYVVGGEGDYWGQGTQVTVSS”, the “polyreactivity (PSR sort gate)” value was “high polyreactivity”. For “QVQLVESGGGLVQAGGSLRLSCAASGRIFAYYAMGWYRQAPGKERELVAAITSDGSSTYYADSVKGRFTISRDNAKNTVYLQMNSLKPEDTAVDYCAAGTYPFWDWIFDLWVDYWGQGTQVTVSS”, the “polyreactivity (PSR sort gate)” value was “high polyreactivity”. With “QVQLVESGGGLVQAGGSLRLSCAASGRIFAYYAMGWYRQAPGKERELVADITRSGARTYYADSVKGRFTISRDNANNTVYLQMNSLTPEDTAVYYCAAEGVRIGTRYDYWGQGTQVTVSS” the “polyreactivity (PSR sort gate)” value was “high polyreactivity”. For “QVQLVESGGGLVQAGGSLRLSCAASGRIFAYYTMGWYRQAPGKERELVAAITNGGRTSYADSVKGRFTISRDNAKNTVYLQMNSLKPEDTAVYYCNAQQYRWPRVYYNYNYWGQGTQVTVSS”, the “polyreactivity (PSR sort gate)” value was “high polyreactivity”. In the case of “QVQLVESGGGLVQAGGSLRLSCAASGRIFDANAMGWYRQAPGKERELVAAITYSGGRTYYADSVKGRFTISRDNAKNTVYLQMNSLKPVDTAVYYCAKRYAYIYDSWGQGTQVTVSS”, the “polyreactivity (PSR sort gate)” value is reported as “low polyreactivity”. In the case of “QVQLVESGGGLVQAGGSLRLSCAASGRIFDDNAMGWYRQAPGKERELVAAITGPDDSTDYADSVKGRFTISRDNAKNTVYLQMNSLKPEDTAVYYCAKDAGYWYYWNGYWGQGTQVTVSS”, the “polyreactivity (PSR sort gate)” value is reported as “high polyreactivity”. For “QVQLVESGGGLVQAGGSLRLSCAASGRIFDDYAMGWYRQAPGKERELVAAISWSGGSTYYADSVKGRFTISRDNAKNTVYLQMNSLKPEDTAVYYCAAPYHSYKRIGYDYWGQGTQVTVSS”, the “polyreactivity (PSR sort gate)” value was “low polyreactivity”. For “QVQLVESGGGLVQAGGSLRLSCAASGRIFDEYAMGWYRQAPGKERELVAAIDTSTGSTYYADSVKGRFTISRDNAKNTVYLQMNSLKPEDTAVYYCAAEVYFGLFYVVFQYDYWGQGTQVTVSS”, the “polyreactivity (PSR sort gate)” value was “high polyreactivity”. With “QVQLVESGGGLVQAGGSLRLSCAASGRIFDGNAMGWYRQAPGKERELVAAISSRGARTYYADSVKGRFTISRDNAKNTVYLQMNSLKPEDTAVYYCNKDLDSLSGAEYDYWGQGTQVTVSS” the “polyreactivity (PSR sort gate)” value was “high polyreactivity”. With “QVQLVESGGGLVQAGGSLRLSCAASGRIFDGYAMGWYRQAPGKERELVAAISSRGGRTYYADSVKGRFTISRDNAKNTVYLQMNSLKPEDTAVYYCAGDDPYGEGDYWGQGTQVTVSS” the “polyreactivity (PSR sort gate)” value was “low polyreactivity”. In the case of “QVQLVESGGGLVQAGGSLRLSCAASGRIFDGYAMGWYRQAPGKERELVATITGDGGSTYYADSVKGRFTISRDNAKNTVYLQMNSLKPEDTAVYYCAARLTRRLSWYLYNNDYWGQGTQVTVSS”, the “polyreactivity (PSR sort gate)” value is reported as “high polyreactivity”. For “QVQLVESGGGLVQAGGSLRLSCAASGRIFDGYAMGWYRQAPGKESELVAAISSRGGRTYYADSVKGRFTISRDNAKNTVYLQMNSLKPEDTAVYYCAGDDPYGEGDYWGQGTQVTVSS”, the “polyreactivity (PSR sort gate)” value was “low polyreactivity”. In the case of “QVQLVESGGGLVQAGGSLRLSCAASGRIFDGYVMGWYRQAPGKERELVAAISASGGSTYYADSVKGRFTISRDNAKNTVYLQMNSLKPEDTAVYYCATDALYGYDYWGQGTQVTVSS”, the “polyreactivity (PSR sort gate)” value is reported as “high polyreactivity”. With “QVQLVESGGGLVQAGGSLRLSCAASGRIFDHYAMVWYRQAPGKERELVAAITRSGGITYYADSVKGRFTISRDNAKYTVYLQMNSLKPEDTAVYYCAALSYRYTDNFDYWGQGTQVTVSS” the “polyreactivity (PSR sort gate)” value was “low polyreactivity”. In the case of “QVQLVESGGGLVQAGGSLRLSCAASGRIFDIYALGWYRQAPGKERELVAAITWRGGSTYYADSVKGRFTISRDNAKNTVYLQMNSLKPEDTAVYYCAVDFITPRGSYYWGQGTQVTVSS”, the “polyreactivity (PSR sort gate)” value is reported as “low polyreactivity”. With “QVQLVESGGGLVQAGGSLRLSCAASGRIFDIYAMGWYRQAAGKERELVAAIRLSSGTTYYADSVKGRFTISRDNAKNTVYLQMNSLKPEDTAVYYCGADFIRPPYDYWGQGTQVTVSS” the “polyreactivity (PSR sort gate)” value was “high polyreactivity”. With “QVQLVESGGGLVQAGGSLRLSCAASGRIFDKYTMGWYRQAPGKERELVAAISKSGSGTFYADSVKGRFTISRDNAKNTVYLQMNSLKPEDTAVYYCARVYTVGTGRSWRLDYWGQGTQVTVSS” the “polyreactivity (PSR sort gate)” value was “high polyreactivity”. With “QVQLVESGGGLVQAGGSLRLSCAASGRIFDLKAMGWYRQAPGERKGVGCLYFLVWWSTYYADSVKGRFTISRDNAKNTVYLQMNSLKPVDTAVYYCAAVYFYSWEGDGDYWGQGTQVTVSS” the “polyreactivity (PSR sort gate)” value was “low polyreactivity”. In the case of “QVQLVESGGGLVQAGGSLRLSCAASGRIFDLNAMGWYRQAPGKERELVAVIDSYGSTYYADSVKGRFTISRDNAKNTVYLQMNSQKPEDSAVYYCTKYWYSRHVRYWAYYAEQRYDYWGQGTQVTVSS”, the “polyreactivity (PSR sort gate)” value is reported as “low polyreactivity”. With “QVQLVESGGGLVQAGGSLRLSCAASGRIFDLNAMGWYRQAPGKETELVAAISYSGGRTFYADSVKGRFTISRDNAKNTVYLQMNSLKPEDTAVYYCNARYGKPAYQYGMDYWGQGTQVTVSS” the “polyreactivity (PSR sort gate)” value was “low polyreactivity”. For “QVQLVESGGGLVQAGGSLRLSCAASGRIFDLYTMGWYRQAPGKERELVAAIRWSDGSTYYADSVKGRFTISRDNAKNTDYLQMNSLKPEDTAVYYCAADSRTSYYNDDYDYWGQGTQVTVSS”, the “polyreactivity (PSR sort gate)” value was “low polyreactivity”. For “QVQLVESGGGLVQAGGSLRLSCAASGRIFDQYAMAWYRQAPGKERELVATISGSGGSTYYADSVKGRFTISRDNAKNTVYLQMNSLKPEDTAVYYCAAVSVSSWYDYWGQGTQVTVSS”, the “polyreactivity (PSR sort gate)” value was “low polyreactivity”. For “QVQLVESGGGLVQAGGSLRLSCAASGRIFDRNAMGWYRQAPGKERELVAAITRSGGRPYYADSVKGRFTISRDNAKNTVYLQMNSLKPEDTAVYYCNRGYPRSVVHYNSWGQGTQVTVSS”, the “polyreactivity (PSR sort gate)” value was “high polyreactivity”. With “QVQLVESGGGLVQAGGSLRLSCAASGRIFDRYDMGWYRQAPGKERELVAGITASGGSTYYADSVKGRFTISRDNAKNTVYLQMTSLKPEDTAVYYCAVVYGYRYYYWGQGTQVTVSS” the “polyreactivity (PSR sort gate)” value was “high polyreactivity”. With “QVQLVESGGGLVQAGGSLRLSCAASGRIFDSYAMGWYRQAPGKERELVASITCSGGSTYADSVKGRFTSSRDNAKNTVYLQMNSLKPEDTAVYYFDYWGQGTQVTVSS” the “polyreactivity (PSR sort gate)” value was “low polyreactivity”. With “QVQLVESGGGLVQAGGSLRLSCAASGRIFDTNAMGWYRQAPGKERELVAAITYSGGSTYYADSVKGRFTISRDNAKNTVYLQMNSLKPEDTAVYYCARVRPYSKYAYGYWGQGTQVTVSS” the “polyreactivity (PSR sort gate)” value was “high polyreactivity”. In the case of “QVQLVESGGGLVQAGGSLRLSCAASGRIFDTNVMGWYRQAPGTDRDFVAAIRWNGGSTNYADSVKGRFTISRDNSKNTVYLQMNSLKPEDTAVYYCAADGYIGWRHIYEYWGQATQVTVSS”, the “polyreactivity (PSR sort gate)” value is reported as “low polyreactivity”. With “QVQLVESGGGLVQAGGSLRLSCAASGRIFDVNAMGWYRQAPGKERELVAAIRSGGRTNYADSVKGRFTISRDNAKNTVYLQMNSLKPEDTAVYYCAAVVWSSLDDYWGLGTQVTVSS” the “polyreactivity (PSR sort gate)” value was “high polyreactivity”. For “QVQLVESGGGLVQAGGSLRLSCAASGRIFDVYAMGWYRQAPGKERALVAAITFSGGSTYYADSVKGRFTISRDNAKNTVYLQMNSLKPEDTAVYYCAAEYVDWFGDYDYWGQGTQVTVSS”, the “polyreactivity (PSR sort gate)” value was “high polyreactivity”. With “QVQLVESGGGLVQAGGSLRLSCAASGRIFDWYVMGWYRQAPGKERELVAAINSGVSTKYADSVKGRFTISRDNAKNTVYLQMNSLKPEDTAVYYCAAQSFSDYRRTGRKSSYYYWGQGTQVTVSS” the “polyreactivity (PSR sort gate)” value was “low polyreactivity”. For “QVQLVESGGGLVQAGGSLRLSCAASGRIFDYNAMGWYRQAPVKERELVATITTGGSTYYADSVKGRFTISRDNAKNTVYLQMYSLKPEDTAVYYCAARRWYFHYFAYGYWGQGTQVTVSS”, the “polyreactivity (PSR sort gate)” value was “low polyreactivity”. In the case of “QVQLVESGGGLVQAGGSLRLSCAASGRIFDYNSMGWSRPAPGKDRELVASITQRGDIPYYADSVKGRFTSSRDNAKNTVFLQMNSLNPDETAVYYGNADGVLVWVLPYVLYTGDYWGQGTQVTVSS”, the “polyreactivity (PSR sort gate)” value is reported as “low polyreactivity”. With “QVQLVESGGGLVQAGGSLRLSCAASGRIFDYNVMGWYRQAPGKERELVAGISSGGSTYYADSVKGRFTISRDNAKNTVYLQMNSLKPEDTEVYYCAARGRPYRGYGYWGQGTQVTVSS” the “polyreactivity (PSR sort gate)” value was “high polyreactivity”. In the case of “QVQLVESGGGLVQAGGSLRLSCAASGRIFDYYAMGWYRQAPGKERELVARITSGGTTNYADSVKGRFTISRDNAKNTVYLQMNSLKPEDTAVYYCNAQDYSDPLQMDYWGQGTQVTVSS”, the “polyreactivity (PSR sort gate)” value is reported as “low polyreactivity”. For “QVQLVESGGGLVQAGGSLRLSCAASGRIFDYYAMGWYRQAPGKERELVASISRSGGSTYYADSVKGRFTISRDNAKNTVYLQMNSLKPEDTAVYYCAARRGYYYGRVGYWGQGTQVTVTS”, the “polyreactivity (PSR sort gate)” value was “high polyreactivity”. For “QVQLVESGGGLVQAGGSLRLSCAASGRIFDYYTMGWYRQAPGKERELVAAINWSGGSTYYADSVKGRITISRDKAKNTVYLQMNSLKPEDTAVYYCATLSYGREYGYWGQGTQVTVSS”, the “polyreactivity (PSR sort gate)” value was “low polyreactivity”. For “QVQLVESGGGLVQAGGSLRLSCAASGRIFDYYTMGWYRQAPGKERELVAAISVRGGSTYYADSVKGRFTNSRDNAKNTVYLQMNSLKPEDTAVYYCAARSWRHRTYYYWGQGTQVTVSS”, the “polyreactivity (PSR sort gate)” value was “high polyreactivity”.

Reference: the nanobody polyreactivity screen of Harvey et al. (2022)
